Measured values as given in paper PMC10287957, “RecF protein targeting to postreplication (daughter strand) gaps I: DNA binding by RecF and RecFR”.

What was measured:
RecF [1] = target: T1, RecF (Escherichia coli, UniProt P0A7H0 1-357); test: fluorescence anisotropy; conditions: 30 mM Tris-Cl pH 7.5, 100 mM NaCl, 10 mM MgCl2, 0.1 mM EDTA, 1 mM DTT, 30% glycerol, 0.1 mg/ml BSA, 10 nM DNA, 25 C, 3 mM ATP and 5 uM RecR where indicated
T1 sequence: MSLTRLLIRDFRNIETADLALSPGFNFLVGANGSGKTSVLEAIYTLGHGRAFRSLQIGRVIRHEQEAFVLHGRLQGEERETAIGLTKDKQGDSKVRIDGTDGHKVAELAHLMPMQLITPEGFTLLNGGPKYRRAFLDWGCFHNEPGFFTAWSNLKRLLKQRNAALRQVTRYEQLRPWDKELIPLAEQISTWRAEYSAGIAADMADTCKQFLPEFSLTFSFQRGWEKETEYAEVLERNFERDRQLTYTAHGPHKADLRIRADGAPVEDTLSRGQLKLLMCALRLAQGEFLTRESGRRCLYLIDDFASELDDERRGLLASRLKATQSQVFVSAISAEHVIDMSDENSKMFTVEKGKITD

[2] = target: RecF;RecR (Escherichia coli;Escherichia coli) (UniProt P0A7H0); test: fluorescence anisotropy; conditions: 3 mM ATP, 5 uM RecR, 30 mM Tris-Cl pH 7.5, 100 mM NaCl, 10 mM MgCl2, 0.1 mM EDTA, 1 mM DTT, 30% glycerol, 0.1 mg/ml BSA, 10 nM DNA, 25 C, 3 mM ATP and 5 uM RecR where indicated
RecF [3] = target: T1, RecF; test: fluorescence anisotropy; 3 mM ATP; 30 mM Tris-Cl pH 7.5, 100 mM NaCl, 10 mM MgCl2, 0.1 mM EDTA, 1 mM DTT, 30% glycerol, 0.1 mg/ml BSA, 10 nM DNA, 25 C; 3 mM ATP and 5 uM RecR where indicated; conditions: protein: recombinant; chain copies: 2; label: 5' FAM

40mer ssDNA 5FAM (random sequence)
Kd (RecF [1]): 0.134 µM

iFAM ss 50mer (dephosphorylated)
Kd (RecF [1]): 0.112 µM

31mer dsDNA 5FAM
Kd (RecF [1]): 0.108 µM

20mer ssDNA 5FAM
Kd (RecF [1]; 3 mM ATP, h 1.1): 0.64 µM

iFAM ss_5P 50mer
Kd (RecF [1]; 5' phosphate): 0.116 µM
Kd (RecF [1]; no ATP, Kd nearly in the uM range, h 1, 5' phosphate): 1 µM

40mer dsDNA 5FAM
Kd (RecF [1]): 0.175 µM

20mer dsDNA 5FAM
Kd (RecF [1]; 3 mM ATP, h 2.4): 0.067 µM
Kd [2]: 109 nM

iFAM css (circular 50mer)
Kd (RecF [1]; circularized by ligation): 0.0978 µM
Kd ([2]; circularized by ligation): 68.4 nM

B1: 31 polydT ssDNA 5FAM (ssDNA)
DNA: TTTTTTTTTTTTTTTTTTTTTTTTTTTTTTT
Kd (RecF [3]): 93 nM
